The values that follow come from the supplement of paper PMC11246515.

± gives the standard deviation of the averaged measurements.

The nature of this data set: total protein half-life in vivo (active degradation + dilution); higher = more stable protein.
Setting [1] is: E. coli NCM3722 delta-clpP delta-lon delta-hslV, growth: N-lim chemostat, doubling time 6 h.
The mark [2] stands for this setting: E. coli NCM3722 delta-clpP, growth: N-lim chemostat, doubling time 6 h.
Where [3] appears, read: E. coli NCM3722 delta-hslV, growth: N-lim chemostat, doubling time 6 h.
[4] abbreviates: E. coli NCM3722 delta-lon, growth: N-lim chemostat, doubling time 6 h.
Setting [5] is: E. coli NCM3722 delta-smpB, growth: N-lim chemostat, doubling time 6 h.
[6] abbreviates: wild type E. coli NCM3722, growth: C-lim chemostat, doubling time 3 h.
[7] abbreviates: wild type E. coli NCM3722, growth: C-lim chemostat, doubling time 6 h.
The mark [8] stands for this setting: wild type E. coli NCM3722, growth: C-lim chemostat, doubling time 12 h.
The mark [9] stands for this setting: wild type E. coli NCM3722, growth: N-lim chemostat, doubling time 6 h.
Where [10] appears, read: wild type E. coli NCM3722, growth: N-lim chemostat, doubling time 12 h.
The mark [11] stands for this setting: wild type E. coli NCM3722, growth: P-lim chemostat, doubling time 6 h.
The mark [12] stands for this setting: wild type E. coli NCM3722, growth: P-lim chemostat, doubling time 12 h.

For the sequence “MITLWGRNNSTNVKKVLLTLEELELPYEQILAGREFGINHDADFLAMNPNGLVPLLRDDESDLILWESNAIVRYLAAQYGQKRLWIDSPARRAEAEKWMDWANQTLSNAHRGILMGLVRTPPEERDQAAIDASCKECDALFALLDAELAKVKWFSGDEFGVGDIAIAPFIYNLFNVGLTWTPRPNLQRWYQQLTERPAVRKVVMIPVS [P0ACA7]”, the “total protein half-life in vivo” value reads like this: under setting [1], 5.15 ± 0.42 h; under setting [2], 4.47 ± 0.4 h; under setting [3], 5.27 ± 1.5 h; under setting [4], 4.6 ± 0.45 h; under setting [5], 4.53 ± 0.24 h; under setting [6], 2.9 ± 0.27 h. Also, the “total protein half-life in vivo” value under setting [7] amounted to 6.21 ± 0.49 h; the “total protein half-life in vivo” value under setting [8] amounted to 9.3 ± 0.54 h; the “total protein half-life in vivo” value under setting [9] was found to be 4.49 ± 0.48 h; the “total protein half-life in vivo” value under setting [10] was found to be 7.89 ± 0.23 h; the “total protein half-life in vivo” value under setting [11] is 5.74 ± 0.36 h; the “total protein half-life in vivo” value under setting [12] came out at 12.1 ± 0.25 h.
As for “MSDNDTIVAQATPPGRGGVGILRISGFKAREVAETVLGKLPKPRYADYLPFKDADGSVLDQGIALWFPGPNSFTGEDVLELQGHGGPVILDLLLKRILTIPGLRIARPGEFSERAFLNDKLDLAQAEAIADLIDASSEQAARSALNSLQGAFSARVNHLVEALTHLRIYVEAAIDFPDEEIDFLSDGKIEAQLNDVIADLDAVRAEARQGSLLREGMKVVIAGRPNAGKSSLLNALAGREAAIVTDIAGTTRDVLREHIHIDGMPLHIIDTAGLREASDEVERIGIERAWQEIEQADRVLFMVDGTTTDAVDPAEIWPEFIARLPAKLPITVVRNKADITGETLGMSEVNGHALIRLSARTGEGVDVLRNHLKQSMGFDTNMEGGFLARRRHLQALEQAAEHLQQGKAQLLGAWAGELLAEELRLAQQNLSEITGEFTSDDLLGRIFSSFCIGK”, the “total protein half-life in vivo” value by setting is: under setting [1], 5.13 ± 0.69 h; under setting [2], 5.57 ± 0.62 h; under setting [3], 4.91 ± 0.24 h; under setting [4], 5.72 ± 0.4 h; under setting [5], 4.68 ± 0.25 h; under setting [6], 3.43 ± 0.63 h. Moreover, the “total protein half-life in vivo” value runs as follows: under setting [7], 5.46 ± 0.16 h; under setting [8], 10.2 ± 5 h; under setting [9], 5.14 ± 0.12 h; under setting [10], 8.32 ± 0.99 h; under setting [11], 5.69 ± 0.32 h; under setting [12], 11.7 ± 0.24 h.
“MNKVVLLCRPGFEKECAAEITDKAGQREIFGFARVKENAGYVIYECYQPDDGDKLIRELPFSSLIFARQWFVVGELLQHLPPEDRITPIVGMLQGVVEKGGELRVEVADTNESKELLKFCRKFTVPLRAALRDAGVLANYETPKRPVVHVFFIAPGCCYTGYSYSNNNSPFYMGIPRLKFPADAPSRSTLKLEEAFHVFIPADEWDERLANGMWAVDLGACPGGWTYQLVKRNMWVYSVDNGPMAQSLMDTGQVTWLREDGFKFRPTRSNISWMVCDMVEKPAKVAALMAQWLVNGWCRETIFNLKLPMKKRYEEVSHNLAYIQAQLDEHGINAQIQARQLYHDREEVTVHVRRIWAAVGGRRDER [P0ADR6]”: the “total protein half-life in vivo” value worked out at 5.236 ± 0.0068 h under setting [1]; 4.78 ± 0.26 h under setting [2]; 4.77 ± 0.28 h under setting [3]; 5.75 ± 1 h under setting [4]; 4.81 ± 0.15 h under setting [5]; 3.45 ± 0.77 h under setting [6]. For the same sequence, the “total protein half-life in vivo” value runs as follows: under setting [7], 5.93 ± 0.44 h; under setting [8], 10.2 ± 0.49 h; under setting [9], 4.78 ± 0.28 h; under setting [10], 8.148 ± 0.00089 h; under setting [11], 5.72 ± 0.16 h; under setting [12], 11.6 ± 0.63 h.
With “MKKTLLAAGAVLALSSSFTVNAAENDKPQYLSDWWHQSVNVVGSYHTRFGPQIRNDTYLEYEAFAKKDWFDFYGYADAPVFFGGNSDAKGIWNHGSPLFMEIEPRFSIDKLTNTDLSFGPFKEWYFANNYIYDMGRNKDGRQSTWYMGLGTDIDTGLPMSLSMNVYAKYQWQNYGAANENEWDGYRFKIKYFVPITDLWGGQLSYIGFTNFDWGSDLGDDSGNAINGIKTRTNNSIASSHILALNYDHWHYSVVARYWHDGGQWNDDAELNFGNGNFNVRSTGWGGYLVVGYNF [P0A927]”, the “total protein half-life in vivo” value under setting [2] was over 8 h; the “total protein half-life in vivo” value under setting [3] stood at 6.33 ± 0.09 h; the “total protein half-life in vivo” value under setting [4] is over 8 h; the “total protein half-life in vivo” value under setting [8] was determined as 14.1 ± 1 h; the “total protein half-life in vivo” value under setting [9] was determined as 6.53 ± 0.7 h; the “total protein half-life in vivo” value under setting [11] is 6.08 ± 0.99 h.
With “MSELNDLLTTRELQRWRLILGEAAETTLCGLDDNARQIDHALEWLYGRDPERLQRGERSGGLGGSNLTTPEWINSIHTLFPQQVIERLESDAVLRYGIEDVVTNLDVLERMQPSESLLRAVLHTKHLMNPEVLAAARRIVCQVVEEIMARLAKEVRQAFSGVRDRRRRSFIPLARNFDFKSTLRANLQHWHPQHGKLYIESPRFNSRIKRQSEQWQLVLLVDQSGSMVDSVIHSAVMAACLWQLPGIRTHLVAFDTSVVDLTADVADPVELLMKVQLGGGTNIASAVEYGRQLIEQPAKSVIILVSDFYEGGSSSLLTHQVKKCVQSGIKVLGLAALDSTATPCYDRDTAQALVNVGAQIAAMTPGELASWLAENLQS”, the “total protein half-life in vivo” value reads like this: under setting [8], 12.9 h; under setting [10], 8.61 h; under setting [11], 6.39 h.
On to “MSLVTDLPAIFDQFSEARQTGFLTVMDLKERGIPLVGTYCTFMPQEIPMAAGAVVVSLCSTSDETIEEAEKDLPRNLCPLIKSSYGFGKTDKCPYFYFSDLVVGETTCDGKKKMYEYMAEFKPVHVMQLPNSVKDDASRALWKAEMLRLQKTVEERFGHEISEDALRDAIALKNRERRALANFYHLGQLNPPALSGSDILKVVYGATFRFDKEALINELDAMTARVRQQWEEGQRLDPRPRILITGCPIGGAAEKVVRAIEENGGWVVGYENCTGAKATEQCVAETGDVYDALADKYLAIGCSCVSPNDQRLKMLSQMVEEYQVDGVVDVILQACHTYAVESLAIKRHVRQQHNIPYIAIETDYSTSDVGQLSTRVAAFIEML”, for which the “total protein half-life in vivo” value under setting [6] came out at 1.59 ± 0.089 h, the “total protein half-life in vivo” value under setting [7] was found to be 1.98 h and the “total protein half-life in vivo” value under setting [8] amounted to 2.51 ± 0.083 h.
For the sequence “MSEYRRYYIKGGTWFFTVNLRNRRSQLLTTQYQMLRHAIIKVKRDRPFEINAWVVLPEHMHCIWTLPEGDDDFSSRWREIKKQFTHACGLKNIWQPRFWEHAIRNTKDYRHHVDYIYINPVKHGWVKQVSDWPFSTFHRDVARGLYPIDWAGDVTDFSAGERIIS”, the “total protein half-life in vivo” value came to 5.68 h under setting [1] and 1.93 h under setting [6].
In the case of “MSVRLVLAKGREKSLLRRHPWVFSGAVARMEGKASLGETIDIVDHQGKWLARGAYSPASQIRARVWTFDPSESIDIAFFSRRLQQAQKWRDWLAQKDGLDSYRLIAGESDGLPGITIDRFGNFLVLQLLSAGAEYQRAALISALQTLYPECSIYDRSDVAVRKKEGMELTQGPVTGELPPALLPIEEHGMKLLVDIQHGHKTGYYLDQRDSRLATRRYVENKRVLNCFSYTGGFAVSALMGGCSQVVSVDTSQEALDIARQNVELNKLDLSKAEFVRDDVFKLLRTYRDRGEKFDVIVMDPPKFVENKSQLMGACRGYKDINMLAIQLLNEGGILLTFSCSGLMTSDLFQKIIADAAIDAGRDVQFIEQFRQAADHPVIATYPEGLYLKGFACRVM”, the “total protein half-life in vivo” value came out at 5.39 ± 0.22 h under setting [1]; 5.51 ± 0.19 h under setting [2]; 5.55 ± 0.16 h under setting [3]; 6.51 ± 0.56 h under setting [4]; 5.25 ± 0.27 h under setting [5]; 3.02 ± 0.1 h under setting [6]. For the same sequence, the “total protein half-life in vivo” value reads like this: under setting [7], 6.57 ± 0.19 h; under setting [8], 11.32 ± 0.082 h; under setting [9], 6.03 ± 0.6 h; under setting [10], 11.3 ± 1.5 h; under setting [11], 6.28 ± 1.2 h; under setting [12], 13.1 ± 1.7 h.
